This note sets out measurements from the nanobody polyreactivity screen of Harvey et al. (2022).

The data set is described as follows: yeast display, Sf9 membrane polyspecificity reagent, FACS + sequencing; frameworks hold sequencing errors. In a few lines: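 A synthetic nanobody library was expressed on Saccharomyces cerevisiae BJ5465 by galactose induction for 36–48 hours. The library was stained for 1 hour at 4 °C with 10% biotinylated, detergent-solubilized Sf9 membrane reagent and enriched with streptavidin microbeads before FACS. Low and high (top ~1%) gates were set on anti-HA fluorescence for expression and streptavidin fluorescence for reagent binding, and each polyreactivity label reflects the gate of origin.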
In the case of “QVQLVESGGGLVQAGGSLRLSCAASGSTFALYAMGWYRQAPGKERELVASITLSGGRTYYADSVKGRFTISRDNAKNTVYLQMNSLKPEDTAVDYCNAEDYDWMDYWGQGTQVTVSS”, the “polyreactivity (PSR sort gate)” value is recorded as “high polyreactivity”.

In the case of “QVQLVESGGGLVQAGGSLRLSCAASGSTFALYAMGWYRQAPGKERELVAVITSGGSTYYADSVKGRFTISRDNAKNTVYLQMNSLKPEDTAVYYCAARRHVRKGPLGYWGQGTQVTVSS”, the “polyreactivity (PSR sort gate)” value was “high polyreactivity”. For “QVQLVESGGGLVQAGGSLRLSCAASGSTFANYAMGWYRQAPGKERELVAAISRGGNTYYADSVKVRFTISRDNAKNTVYLQMNSLKPEDTAVYYCAKYTYYSRPGDSDSDYWGQGTQVTVSS”, the “polyreactivity (PSR sort gate)” value was “high polyreactivity”. The result for “QVQLVESGGGLVQAGGSLRLSCAASGSTFAPNTMGWYRQAPGKERELVARITSSDGSTTYADSVKGRFTISRDNAKNTVYLQRNSLKPEDTAVYYCAADYGRRWGYDYWGQGTQVTVSS” reads “low polyreactivity”; that for “QVQLVESGGGLVQAGGSLRLSCAASGSTFARYAMGWYRQAPGKERELVAAISRSGSNTYYADSVKGRFTISRDNAKNTVYLQMNSLKPEDTAVYYCAAVQPGQRTVAYDYWGQGTQVTVSS”, “high polyreactivity”. To “QVQLVESGGGLVQAGGSLRLSCAASGSTFARYAMGWYRQAPGKERELVAAITWRGGSTYYADSVKGRFTISRDNAKNTVYLQMNSLKPEDTAVYYCAADFSRRYGYWGQGTQVTVSS” belongs “high polyreactivity”. As to “QVQLVESGGGLVQAGGSLRLSCAASGSTFARYAMGWYRQAPGKERELVAGISRGGRTYYADSVMGRFTISRDYAKNTVYLQMNSLKPVDTAVYYCAKRYVTLYNSQYNYWGQGTQVTVSS”, the “polyreactivity (PSR sort gate)” value is given as “high polyreactivity”. As to “QVQLVESGGGLVQAGGSLRLSCAASGSTFARYAMGWYRQAPGKERELVAGISTSGGRTYYADSVKGRFTISRDNAKNTVYLQMTSLKPEDTAVYYCAKALSQTWYDGQYGYWGQGTQVTVSS”, the “polyreactivity (PSR sort gate)” value is on record as “low polyreactivity”. On to “QVQLVESGGGLVQAGGSLRLSCAASGSTFASYAMGWSRQAPGKERELVAAIRWRGGTTYYADSVKGRFTISRDNAKNTVYLQMNSLKPEDTAVYYCNADRYYLYYYWGQGTQVTVSW”, for which the “polyreactivity (PSR sort gate)” value is “low polyreactivity”. As to “QVQLVESGGGLVQAGGSLRLSCAASGSTFASYAMGWYRQAPGKEREFVAAISRSGGSTYYADSVKGRFTISRDNAKNTVYLQMNSLKPEDTAVYYCAARSPSADEYYYWGQGTQVTVSS”, the “polyreactivity (PSR sort gate)” value is “low polyreactivity”. The result for “QVQLVESGGGLVQAGGSLRLSCAASGSTFATNAMGWYRQAPGKERELVATISSDGSTNYADSVKGRFTISRDNAKNTVYLQMNSLKPEDTAVYYCATEVTYPWHVDEGDYWGQGTQVTVSS” reads “low polyreactivity”; that for “QVQLVESGGGLVQAGGSLRLSCAASGSTFAVYAMGWYRQAPGKERELVAAITWSGGSTYYADSVKGRFTISRDNAKNTVYFQMNSLKPEDTAVYYCAAAGYYSDMDYWGQGTQVTVSS”, “low polyreactivity”.

As to “QVQLVESGGGLVQAGGSLRLSCAASGSTFAVYAMGWYRQEPGKERELVATITGSGGSTYYADSVKGRFTISRDNAKNTVYLQMNSLKPEDTAVYYCAAEVVAWSLYEDFKTYDYWGQGTQVTVSS”, the “polyreactivity (PSR sort gate)” value was “low polyreactivity”. In the case of “QVQLVESGGGLVQAGGSLRLSCAASGSTFAVYTMGWYRQAPGKERELVAAISSSGGSTYLRRSVKGRFTISRDNAKNTVYLQMNSLKPEDTAVYYCAAQWYAGHWHVPYEYWGQGTQVTVSS”, the “polyreactivity (PSR sort gate)” value was “high polyreactivity”. To “QVQLVESGGGLVQAGGSLRLSCAASGSTFAWYAMGWYRQAPGKGEFVAGISDSGGRTYYADSVKGRFTISRDNAKNTVYLQMNSLKPEDTAVYYCAAGDHYYRYAYRRGYWGQGTQVTVSS” belongs “low polyreactivity”; to “QVQLVESGGGLVQAGGSLRLSCAASGSTFAYNAMGCYRQAPGKERELVAAISFTGDSTYYADSVKGRFTISRDNAKYTVYLQMNSLKPEDNRSSPVLSYDYWGQGTQVTVSS”, “low polyreactivity”; to “QVQLVESGGGLVQAGGSLRLSCAASGSTFAYNAMGWYIQAPGKERELVAAISWGDGITYYADSVKGRFSISRDYAKNTVYLQINILKPEDTAVITRDFGYWGQGTQVTVSS”, “low polyreactivity”.

With “QVQLVESGGGLVQAGGSLRLSCAASGSTFAYNAMGWYRQAPGKERELVAAISSSGGSTSYADSVKARFTIARDNAKNTVNLQMNSLKPEDPAVYYCAADSYPAYLGFVGFDYWGQGTQVTVSS”, the “polyreactivity (PSR sort gate)” value is reported as “low polyreactivity”. “QVQLVESGGGLVQAGGSLRLSCAASGSTFAYNAMGWYRQAPGKERELVAAISSSGTSTYYADSVKGRFTISRDYAKNTVYLQMNSLKTEDTAVYYCAARSAILKSGYLMDYWGQGTQVTVSS”: the “polyreactivity (PSR sort gate)” value is reported as “low polyreactivity”. To “QVQLVESGGGLVQAGGSLRLSCAASGSTFAYNAMGWYRQAPGKERELVASITVSVGSTYYADSVKGRYTISRDNAKNTVYLQMNRLKPVDTAVYYCAARVTLRSSTYWVPRTGYYYWGQGTQVTVSS” belongs “low polyreactivity”; to “QVQLVESGGGLVQAGGSLRLSCAASGSTFAYYMGWYRQAPGKERELVASISTYYADSVKGRFTISRDNAKNTVYLQMNSLKPEDTAVYSCAKGYPDPQWGGVLAYDYWGQGTQVTVSS”, “low polyreactivity”.

As for “QVQLVESGGGLVQAGGSLRLSCAASGSTFAYYVMGWYRQAPGKERELVAAISRGGRTYYADSVKGRFTISRDNAKNTVYLQMNSLKPEDTAVYYCAKPYHQRSAKVDYWGQGTQVTVSS”, the “polyreactivity (PSR sort gate)” value is listed as “low polyreactivity”. The result for “QVQLVESGGGLVQAGGSLRLSCAASGSTFAYYVMGWYRQAPGKERELVAAITSSGGRTYYADSVKGRFTISRDNAKNTVYLQMNSQKPEDTAVYYCAKVSQRRVDNSDYDYWGQGTQVTVSS” reads “high polyreactivity”. As for “QVQLVESGGGLVQAGGSLRLSCAASGSTFCDYAMGWYRQAPGKERELVAAISSGGSTNYADSVKGRFTISRDNAKNTVYLQMNSLKPEDTAVYYCAVGYGGYYYWGQGTQVTVSS”, the “polyreactivity (PSR sort gate)” value is given as “high polyreactivity”. The result for “QVQLVESGGGLVQAGGSLRLSCAASGSTFCGYAMGWSRQAPGKEREFVATISISGGSTYYADSVKGRFTISRDNAKNTVYLQMNSLKPEDTAVYYCNADYYFSWGSIEDYWGQGTQVTVSS” reads “low polyreactivity”; that for “QVQLVESGGGLVQAGGSLRLSCAASGSTFCRNTMGWYRQAPGKERELVAAINRSASNTYYADSVKGRFTISRDNAKNTVYLQMNSLKQEDPAVYYCSTYSRIFKWEYYYWGQGTQGTVSS”, “high polyreactivity”. To “QVQLVESGGGLVQAGGSLRLSCAASGSTFDANAMGWYRQAPGKERELVAAISYSDGTTYYADSVKGRFTISRDNAKNTVYLQMNSLKPEDTAVYYCAAELFTYDGEEDYWGQGTQVTVSS” belongs “high polyreactivity”; to “QVQLVESGGGLVQAGGSLRLSCAASGSTFDAYAMGWYRQAPGKERELVAAITWSGGSTYYADSVKGRFTISRDNAKTTVYLQMNSLKPEDTAVYYCAAYYLIFYFEFDYWGQGTQVTVYS”, “low polyreactivity”; to “QVQLVESGGGLVQAGGSLRLSCAASGSTFDDNVMGWYRQAPGKERELVASSTSGGGTNYADSVKGRFTISRDNAKNTVYLQMKSLKPEDTAVYYCAARTQGRRLDYGYWGQGTQVTVSS”, “low polyreactivity”. To “QVQLVESGGGLVQAGGSLRLSCAASGSTFDDYAMGWYRQATGIERELVAAINNGGSTTYADSVKGRFTISRDNAKNTVYLQMNSLKPEDTAVYYCAKDSGAWEYDYWGQGTQVTVSS” belongs “low polyreactivity”.
